According to PMC3814363, “Tracking in atomic detail the functional specializations in viral RecA helicases that occur during evolution” (Nucleic Acids Research, 2013):
Changes are numbered by the printed parent chain. In names and notes the source's numbering stands.

Legend:
[1] = molecular target: ɸ8 P4Δ281 (C-terminally truncated ɸ8 P4, missing residues 281–321) (bacteriophage ɸ8); experiment: crystal structure; ɸ8 P4Δ281 crystals from 5 mg/ml protein; 100 mM Tris pH 8.0, 18% PEG 1000; hexamer
[2] = molecular target: ɸ8 P4 (full-length packaging NTPase P4 of bacteriophage ɸ8) (bacteriophage ɸ8); experiment: crystal structure; ɸ8 P4 crystals grown at 24°C; 100 mM sodium acetate pH 4.6, […] ammonium sulphate, DTT; protein 3 mg/ml; apo form; hexamer
[3] = molecular target: ɸ13 P4 (full-length packaging NTPase P4 of bacteriophage ɸ13) (bacteriophage ɸ13); experiment: crystal structure; ɸ13 P4 crystals grown at 20°C from 12 mg/ml protein; 100 mM Tris–HCl pH 7.0, 900 mM trisodium citrate, 200 mM NaCl; apo form; hexamer
[4] = molecular target: T1, ɸ12 P4 (Pseudomonas phage phi12, UniProt Q94M05); experiment: X-ray crystal structure, […] Å; assay type: binding; conditions: 5 mM UTP, pH 4.8; nucleotide site; competitive with ATP, not hydrolysed
T1 construct: gene 4; plasmid pPG27 (template for mutants), E. coli BL21(DE3) or B834(DE3); hexamer
T1 sequence (Q94M05 entry or part of it): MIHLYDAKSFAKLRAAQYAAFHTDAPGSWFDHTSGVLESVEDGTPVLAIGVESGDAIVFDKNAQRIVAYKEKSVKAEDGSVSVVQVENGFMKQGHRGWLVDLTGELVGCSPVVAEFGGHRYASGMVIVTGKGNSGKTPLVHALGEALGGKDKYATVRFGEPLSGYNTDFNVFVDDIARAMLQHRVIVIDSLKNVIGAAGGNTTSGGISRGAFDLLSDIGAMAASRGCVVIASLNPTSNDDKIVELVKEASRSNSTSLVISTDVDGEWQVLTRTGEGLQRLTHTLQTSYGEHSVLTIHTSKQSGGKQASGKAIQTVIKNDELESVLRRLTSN

[5] = molecular target: the molecule itself; experiment: crystal structure; ɸ6 P4Δ310 crystals grown at 24°C from 3.5 mg/ml protein in 20 mM HEPES pH 8.0, 5 mM MgCl2, 2 mM CaCl2, 5 mM ADP, 100 mM NaCl; reservoir 6% PEG 4000, 90 mM sodium acetate pH 4.5; ADP bound; hexamer
[6] = molecular target: the molecule itself; experiment: not stated; quaternary structure of purified ɸ12 P4 mutants as listed in Table 1; method not given
[7] = molecular target: the molecule itself; experiment: crystal structure; wild-type ɸ12 P4 crystals; 10% PEG 1500, 100 mM sodium acetate pH 4.8, 5 mM UTP; hexamer

**Q.** For “ɸ8 P4Δ281 (C-terminally truncated ɸ8 P4, missing residues 281–321) (domain or fragment)”, which stoichiometry N [1] is on record?
**A.** Its stoichiometry N is 6.

**Q.** Which stoichiometry N [2] does the source give for “ɸ8 P4 (full-length packaging NTPase P4 of bacteriophage ɸ8) (enzyme)” here?
**A.** Its stoichiometry N is 6.

**Q.** “ɸ13 P4 (full-length packaging NTPase P4 of bacteriophage ɸ13) (enzyme)” was tested. Which stoichiometry N [3] did it give?
**A.** Its stoichiometry N is 6.

**Q.** With `O=c1ccn([C@@H]2O[C@H](COP(=O)(O)OP(=O)(O)OP(=O)(O)O)[C@@H](O)[C@H]2O)c(=O)[nH]1` [UTP] as the molecule, how does the “X-ray crystal structure, 1.9 Å” value [4] read?
**A.** The value was “pyrimidine triphosphates can bind the hexamer without being hydrolysed”.

B1: ɸ6 P4Δ310 (C-terminally truncated packaging NTPase P4 of bacteriophage ɸ6, missing residues 310–331) (domain or fragment, UniProt P11125 1-309, looked up)
chain: MPIVVTQAHIDRVGIAADLLDASPVSLQVLGRPTAINTVVIKTYIAAVMELASKQGGSLAGVDIRPSVLLKDTAIFTKPKAKSADVESDVDVLDTGIYSVPGLARKPVTHRWPSEGIYSGVTALMGATGSGKSITLNEKLRPDVLIRWGEVAEAYDELDTAVHISTLDEMLIVCIGLGALGFNVAVDSVRPLLFRLKGAASAGGIVAVFYSLLTDISNLFTQYDCSVVMVVNPMVDAEKIEYVFGQVMASTVGAILCADGNVSRTMFRTNKGRIFNGAAPLAADTHMPSMDRPTSMKALDHTSIASVAP
notes: packaging NTPase P4 of bacteriophage ɸ6, C-terminally truncated, missing residues 310–331; expressed from plasmid pJTJ7.3/7; Crystallised with ADP, Mg2+ and Ca2+; source: E. coli BL21(DE3) or B834(DE3), purified (Heparin, Q-sepharose, Superdex 200)
**Q.** For B1, which “stoichiometry N” value [5] is on record?
**A.** Its value is 6.

B2: ɸ12 P4 Y288A (enzyme, bacteriophage ɸ12)
chain: MIHLYDAKSFAKLRAAQYAAFHTDAPGSWFDHTSGVLESVEDGTPVLAIGVESGDAIVFDKNAQRIVAYKEKSVKAEDGSVSVVQVENGFMKQGHRGWLVDLTGELVGCSPVVAEFGGHRYASGMVIVTGKGNSGKTPLVHALGEALGGKDKYATVRFGEPLSGYNTDFNVFVDDIARAMLQHRVIVIDSLKNVIGAAGGNTTSGGISRGAFDLLSDIGAMAASRGCVVIASLNPTSNDDKIVELVKEASRSNSTSLVISTDVDGEWQVLTRTGEGLQRLTHTLQTSAGEHSVLTIHTSKQSGGKQASGKAIQTVIKNDELESVLRRLTSN
notes: packaging NTPase P4 of bacteriophage ɸ12 (gene 4) with Y288A; made from plasmid pPG27, plasmid pDK29; also called ɸ12 Y288A; source: E. coli BL21(DE3) or B834(DE3), purified (Heparin, Q-sepharose, Superdex 200)
**Q.** How did the “stoichiometry N” value [6] turn out when B2 was run?
**A.** Its value is 6.

B3: ɸ12 P4 TTS202-204LKK (enzyme, bacteriophage ɸ12)
chain: B2 chain with T202L, T203K, S204K, A288Y
notes: packaging NTPase P4 of bacteriophage ɸ12 (gene 4) with LKK instead of TTS (residues 202–204); cloned in the pT7-7 vector at NdeI-EcoRI sites; also called ɸ12 TTS202-204LKK; source: E. coli BL21(DE3) or B834(DE3), purified (Heparin, Q-sepharose, Superdex 200)
**Q.** For B3, which “stoichiometry N” value [6] is on record?
**A.** The value was 6.

B4: ɸ12 P4-S292A (enzyme)
chain: B2 chain with A288Y, S292A
notes: packaging NTPase P4 of bacteriophage ɸ12 (gene 4) with S292A; made from plasmid pPG27, plasmid pDK31; Crystallised with 5 mM AMPcPP; also called ɸ12 S292A; S292A mutant; source: E. coli BL21(DE3) or B834(DE3), purified (Heparin, Q-sepharose, Superdex 200)
**Q.** How did the “stoichiometry N” value [6] turn out when B4 was run?
**A.** The value was 6.

B5: wild-type ɸ12 P4 (packaging NTPase P4 of bacteriophage ɸ12) (enzyme)
chain: B2 chain with A288Y
notes: packaging NTPase P4 of bacteriophage ɸ12 (gene 4), wild type; plasmid pPG27; Crystallised here with 5 mM UTP; also called P4 ɸ12; source: E. coli BL21(DE3) or B834(DE3), purified (Heparin, Q-sepharose, Superdex 200)
**Q.** For B5, which “stoichiometry N” value [7] is on record?
**A.** The value was 6.

B6: ɸ12 P4-Q278A (enzyme)
chain: B2 chain with Q278A, A288Y
notes: packaging NTPase P4 of bacteriophage ɸ12 (gene 4) with Q278A; made from plasmid pPG27, plasmid pDK30; Crystallised with 5 mM AMPcPP; also called ɸ12 Q278A; Q278A mutant; source: E. coli BL21(DE3) or B834(DE3), purified (Heparin, Q-sepharose, Superdex 200)
**Q.** With B6 as the molecule, how does the “stoichiometry N” value [6] read?
**A.** The value was 6.

B7: ɸ12 P4 ΔTTS202-204 (enzyme, bacteriophage ɸ12)
chain: MIHLYDAKSFAKLRAAQYAAFHTDAPGSWFDHTSGVLESVEDGTPVLAIGVESGDAIVFDKNAQRIVAYKEKSVKAEDGSVSVVQVENGFMKQGHRGWLVDLTGELVGCSPVVAEFGGHRYASGMVIVTGKGNSGKTPLVHALGEALGGKDKYATVRFGEPLSGYNTDFNVFVDDIARAMLQHRVIVIDSLKNVIGAAGGNGGISRGAFDLLSDIGAMAASRGCVVIASLNPTSNDDKIVELVKEASRSNSTSLVISTDVDGEWQVLTRTGEGLQRLTHTLQTSYGEHSVLTIHTSKQSGGKQASGKAIQTVIKNDELESVLRRLTSN
notes: packaging NTPase P4 of bacteriophage ɸ12 (gene 4) with the L1 loop central residues T202-T203-S204 deleted; made from plasmid pPG27, plasmid pDK249; also called ɸ12 ΔTTS202-204; source: E. coli BL21(DE3) or B834(DE3), purified (Heparin, Q-sepharose, Superdex 200)
**Q.** How did the “stoichiometry N” value [6] turn out when B7 was run?
**A.** The value was 6.
